Source: US20240409645A1 (DUALYX, published 2024)

T1: human IL-2Rβ (human, UniProt P14784 27-240, limits assumed)
T1 construct: Recombinant protein, coated (ELISA) or immobilised on CM5 (SPR); also called hu IL-2R; interleukin 2 receptor β-chain
T1 sequence: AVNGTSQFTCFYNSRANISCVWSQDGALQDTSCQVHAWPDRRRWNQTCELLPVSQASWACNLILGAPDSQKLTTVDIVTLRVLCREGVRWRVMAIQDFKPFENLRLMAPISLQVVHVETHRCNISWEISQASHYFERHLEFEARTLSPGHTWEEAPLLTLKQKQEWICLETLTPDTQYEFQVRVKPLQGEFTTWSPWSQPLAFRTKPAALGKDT


Legend:
human IL-2Rβ [1] = target: T1, human IL-2Rβ; test: P.E. binding ELISA on coated protein
Method: In a binding ELISA, human or mouse IL-2Rα, IL-2Rβ and IL-2Rγ proteins were coated directly on maxisorp microtiter plates overnight at 4° C. Free binding sites were blocked using 4% Marvel in PBS for 1 hour. Next, 1:5 dilution of P.E. in 1% Marvel/PBS were added to wells and incubated for 1 hour. […] Binding specificity was determined based on O.D. at 450 nm values compared to negative controls.

human IL-2Rβ [2] = target: T1, human IL-2Rβ; test: SPR (Biacore), P.E. off-rate ranking

Binder	P.E. binding ELISA OD (human IL-2Rβ [1])	koff (human IL-2Rβ [2])
FJ1427_P035MP03G03 (VHH, soluble VHH in periplasmic extract; also called clone nr) VHH: QVQLVESGGGLVQPGGSLGLSCAASGFTFDNYAMSWVRQAPGKGLEWVSSITGAGRGTHYADSVKGRFTISRDNAKNTLYLQMNSLKPEDTAVYYCAKYSSSTYYPPTPARGTDYRGPGTQVTVSS	0.137 OD450 nm	0.00114 s⁻¹
FJ1427_P035MP06B01 (VHH, soluble VHH in periplasmic extract; also called clone nr) VHH: QVQLVESGGGLVQAGGSLRLSCAASGDVFVRYTMAWFRQAPGKEREFVASVTDSGRTTDYVHSVKGRFTVSRDNAKNTVYLQMNNLKPEDTAVYYCAANTDYFQIRSLDANTWGQGTQVTVSS	0.521 OD450 nm	0.0021 s⁻¹
FJ1427 P035MP03B11 (VHH, soluble VHH in periplasmic extract; also called clone nr) VHH: EVQLVESGGGLVQAGGSLRLACALSGDVFVRYTMAWFRQAPGKEREFVASVTDSGRTTDYVASVQGRFTVSRDNNKNTVYLQMNSLKPEDTAVYYCAANTDYFQIRSLDRNTWGQGTQVTVSS	0.987 OD450 nm	0.000622 s⁻¹
FJ1427 P035MP03C08 (VHH, soluble VHH in periplasmic extract; also called clone nr) VHH: EVQLVESGGGLVQAGGSLRLACALSGDVFVRYTMAWFRQAPGKEREFVASVTDSGRTTDYVASVQGRFTVSRDNNKNTVYLQMNSLKPEDTAVYYCAANTDYFQIRSLDRNTWGQGTQVTVSS	0.972 OD450 nm	0.000757 s⁻¹
FJ1427 P035MP06C02 (VHH, soluble VHH in periplasmic extract; also called clone nr) VHH: QVQLVESGGGLVQAGGSLRLSCVVSGDVFVRYTMAWFRQAPGKEREFVAVVTDSGRTTEYVDSVKGRFTVSRDNAKNTVYLQMNNLKPEDTAVYYCAANTDYFQIRSVDNNAWGQGTQVTVSS	0.799 OD450 nm	0.000455 s⁻¹
FJ1427 P035MP03B10 (VHH, soluble VHH in periplasmic extract; also called clone nr) VHH: QVQLVESGGGLVQAGGSLRLSCVVSGDVFVRYTMAWFRQAPGKEREFVAVVTDSGRTTEYVDSVKGRFTVSRDNAKNTVYLQMNNLKPEDTAVYYCAANTDYFQIRSVDNNAWGQGTQVTVSS	0.286 OD450 nm	0.000707 s⁻¹
FJ1427 P035MP03E07 (VHH, soluble VHH in periplasmic extract; also called clone nr) VHH: QVQLVESGGGLVQAGGSLRLSCAVSGDVFVRYTMAWFRQAPGKEREFVATVTDSGRTTEYVDSVKGRFTVSRDNAKNTVYLQMNNLKPEDTAVYYCAANTDYFRIRSLDANTWGQGTQVTVSS	0.211 OD450 nm	0.00168 s⁻¹
FJ1427 P035MP06D01 (VHH, soluble VHH in periplasmic extract; also called clone nr) VHH: QVQLVESGGRLVQAGGSLRLSCAASGDVFVRYTMAWFRQAPGKEREFVASVTDSGRTTEYVDSVKGRFTVSRDNAKNTAYLQMNNLKPEDTAVYYCAANTDYFQIRSLNLNTWGQGTQVTVSS	1.1 OD450 nm	0.00031 s⁻¹
FJ1427_P035MP03G08 (VHH, soluble VHH in periplasmic extract; also called clone nr) VHH: QVQLVESGGGLVQAGGSLRLACALSGDVFVRYTMAWFRQAPGKGREFVASVTDSGRTTDYVASVQGRFTVSRDNNKNTVYLQMNSLKPEDTAVYYCAANTDYFQIRSLDRNTWGQGTQVTVSS	1.26 OD450 nm	0.00055 s⁻¹
FJ1427 P035MP03C11 (VHH, soluble VHH in periplasmic extract; also called clone nr) VHH: QVQLVESGGGLVQAGGSLRLACALSGDVFVRYTMAWFRQAPGKEREFVASVTDSGRTTDYVASVQGRFTVSRDNNKNTVYLQMNSLKPEDTAVYYCAANTDYFQIRSLDRNTWGQGTQVTVSS	1.31 OD450 nm	0.000514 s⁻¹
FJ1427 P035MP03B04 (VHH, soluble VHH in periplasmic extract; also called clone nr) VHH: QVQLVESGGGLVQTGGSLRLSCAASGSQFINDVMGWYRQVPGKQRELVADMDDTGSTKYADSVKGRFTILRDSVKNTAYLQMSNLKPEDTGVYYCKAGLWIKGRHSDYWGQGTQVTVSS	0.186 OD450 nm	0.00043 s⁻¹
FJ1427_P035MP03F06 (VHH, soluble VHH in periplasmic extract; also called clone nr) VHH: QVQLQESGGGLVQTGGSLRLSCAASGSQFINDVMGWYRQVPGKQRELVADMDDTGSTKYADSVKGRFTILRDSVKNTAYLQMSNLKPEDTGVYYCKAGLWIKGRHSDYWGQGTQVTVSS	0.434 OD450 nm	0.000286 s⁻¹
FJ1427_P035MP03E02 (VHH, soluble VHH in periplasmic extract; also called clone nr) VHH: QVQLVESGGGLVQVGGSLSVSCAASGRSFDSITMAYFRQAPGNEREFIAGINFSGSRTAYGDSVKGRFTISRDNAKNTVFLQMNSLNPEDTAVYYCAASPRGFYGPGHALYDYWGQGTQVTVSS	0.488 OD450 nm	0.00124 s⁻¹
FJ1427_P035MP03F03 (VHH, soluble VHH in periplasmic extract; also called clone nr) VHH: QVQLVESGGTLVQTGGSLRLSCVVSGSHFISDVMGWYRQVPGKQRELVADMADGGSAKYGDSVKGRFTIVRDSVKNTVYLQMSSLNPEDTGVYYCKAGLWIKGRHSDYWGQGTQVTVTS	0.107 OD450 nm	0.000361 s⁻¹

Other lines, results leading:

P.E. binding ELISA OD (human IL-2Rβ [1])	koff (human IL-2Rβ [2])	Binder
0.22 OD450 nm	0.000253 s⁻¹	FJ1427_P035MP03E04 (VHH, soluble VHH in periplasmic extract; also called clone nr) VHH: QVQLVESGGGLVQTGGSLRLSCAVSGSHFISDVMGWYRQVPEKQRELVADMADGNSAKYADSVKGRFSILRDSVKNTVYLQMSSLKPEDTGIYYCKAGLWIAGRHSDYWGQGTQVTVSS
0.281 OD450 nm	0.00136 s⁻¹	FJ1427_P035MP03E03 (VHH, soluble VHH in periplasmic extract; also called clone nr) VHH: QVQLVESGGGLVQPGGSLRLSCAVSGGTLHDYGIGWIRQAPGKQREGVSCMSRSDDKTYYADYVKGRFTISKDNAKNTVYLQMISLKPEDTAVYYCAAVDAYGCSLVQPTTYDYWGQGTQVTVSS
0.202 OD450 nm	0.00125 s⁻¹	FJ1427 P035MP03B12 (VHH, soluble VHH in periplasmic extract; also called clone nr) VHH: EVQLVESGGGLVQAGGSLRLSCAASGDVFVRYTMAWFRQAPGKEREFVAAVTDSGRTADYVDSVKGRFTVSRDNAKNTVYLQMNNLKPEDTAVYYCAANTDYFQIRSLDRNTWGQGTQVTVSS
0.209 OD450 nm	0.00263 s⁻¹	FJ1427 P035MP03D07 (VHH, soluble VHH in periplasmic extract; also called clone nr) VHH: EVQLVESGGGLVQAGGSLRLSCAASGDVFVRYTMAWFRQAPGKEREFVASVTDSGRTTDYGDSVKGRFTVSRDNAKNTVYLQMNNLKPEDTAVYYCAANTDYFQIRSLDANTWGQGTQVTVSS
0.843 OD450 nm	0.000713 s⁻¹	FJ1427_P035MP03G09 (VHH, soluble VHH in periplasmic extract; also called clone nr) VHH: QVQLVESGGGLVQAGGSLRLSCVVSGDVFVRYTMAWFRQAPGKEREFVAVVTDSGRTTEYVDSVKGRFTVSRDNAKNTVYLQMNNLKPEDTAVYYCAANTDYFQIRSVDNNAWGQGTQVTVSS
0.401 OD450 nm	0.000898 s⁻¹	FJ1427_P035MP03B05 (VHH, soluble VHH in periplasmic extract; also called clone nr) VHH: EVQLVESGGGLVQAGGSLRLACALSGDVFVRYTMAWFRQAPGKEREFVASVTDSGRTTDYVASVQGRFTVSRDNNKNTVYLQMNSLKPEDTAVYYCAANTDYFQIRSLDRNTWGQGTQVTVSS
0.467 OD450 nm	0.00202 s⁻¹	FJ1427_P035MP03B09 (VHH, soluble VHH in periplasmic extract; also called clone nr) VHH: QVQLVESGGGLVQAGGSLRLSCVVSGDVFVRYTMAWFRQAPGKEREFVTSITDSGRTTEYVDSVKGRFTVSRDNAKNTVYLQMNNLKPEDTAVYYCAANTDYFRIRSLDANTWGQGTQVTVSS
0.313 OD450 nm	0.00161 s⁻¹	FJ1427 P035MP03D09 (VHH, soluble VHH in periplasmic extract; also called clone nr; 260) VHH: QVQLVESGGGLVQAGGSLRLSCAVSGDVFVRYTMAWFRQAPGKEREFVASVTDSGRTTDYVHSVKGRFTVSRDNAKNTVYLQMNNLKPEDTAVYYCAANTDYFQIKSLDANTWGQGTQVTVSS
0.983 OD450 nm	0.000636 s⁻¹	FJ1427_P035MP03A10 (VHH, soluble VHH in periplasmic extract; also called clone nr) VHH: QVQLVESGGGLVQAGGSLRLACALSGDVFVRYTMAWFRQAPGKEREFVASVTDSGRTTDYVASVQGRFTVSRDNNKNTVYLQMNSLKPEDTAVYYCAANTDYFQIRSLDRNTWGQGTQVTVSS
1.21 OD450 nm	0.000658 s⁻¹	FJ1427 P035MP03C06 (VHH, soluble VHH in periplasmic extract; also called clone nr) VHH: QVQLVESGGGLVQAGGSLRLACALSGDVFVRYTMAWFRQAPGKEREFVASVTDSGRTTDYVASVQGRFTVSRDNNKNTVYLQMNSLKPEDTAVYYCAANTDYFQIRSLDRNTWGQGTQVTVSS
1.12 OD450 nm	0.00064 s⁻¹	FJ1427 P035MP03B08 (VHH, soluble VHH in periplasmic extract; also called clone nr; 250) VHH: QVQLVESGGGLVQAGGSLRLACALSGDVFVRYTMAWFRQAPGKEREFVASVTDSGRTTDYVASVQGRFTVSRDNNKNTVYLQMNSLKPEDTAVYYCAANTDYFQIRSLDRNTWGQGTQVTVSS
0.624 OD450 nm	0.00148 s⁻¹	FJ1427_P035MP03E11 (VHH, soluble VHH in periplasmic extract; also called clone nr) VHH: EVQLVESGGGLVQAGGSLRLSCVVSGDVFVRYTMAWFRQAPGKEREFVAAVTDSGRTTEYVDSVKGRFTVSRDNAKNTVYLQMNNLEPEDTAVYYCAANTDYFQIRSVDNNAWGQGTQVTVSS
0.153 OD450 nm	0.000402 s⁻¹	FJ1427_P035MP03F04 (VHH, soluble VHH in periplasmic extract; also called clone nr) VHH: EVQLVESGGGLVQTGGSLRLSCAASGSQFINDVMGWYRQVPGKQRELVADMDDTGSTKYADSVKGRFTILRDSVKNTAYLQMSNLKPEDTGVYYCKAGLWIKGRHSDYWGQGTQVTVSS
0.684 OD450 nm	0.000754 s⁻¹	FJ1427_P035MP03G02 (VHH, soluble VHH in periplasmic extract; also called clone nr) VHH: EVQLVESGGGLVQPGGSLRLSCAISGGTLDSYGIGWVRQAPGKQREGVSCMSRSDDRTFYADSVKGRFTISKDNAKSTVYLQMTNLKPDDTAVYYCAAVDAYGCSLVQPTTYDFWGLGTQVTVSS
